B1: MMP1 (parent)
chain: YTPDLPRADVDHAIEKAFQLWSNV
B2: HDAC6 (parent)
chain: YVHHQALLDVKNIAHQNKFGEDMP

Variants of: B1
Assay: protein stability index of a GFP-peptide fusion (GPS, HEK-293T) (PSI 1-6); higher = more stable
Conditions: c terminus: a fixed tail appended
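Note: lentivirally expressed fusions sorted by FACS into six bins by GFP to DsRed ratio, PSI derived from sequencing read proportions per bin multiplied by bin number.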

Variant	protein stability index
YTPDAPRADVDHAIEKAFQLWSNV [L5A]	2.11
YTPDFPRADVDHAIEKAFQLWSNV [L5F]	2.64
YTPDEPRADVDHAIEKAFQLWSNV [L5E]	2.16
YTPDCPRADVDHAIEKAFQLWSNV [L5C]	1.84
YTPDGPRADVDHAIEKAFQLWSNV [L5G]	1.32
YTPDDPRADVDHAIEKAFQLWSNV [L5D]	2.34
YTPPLPRADVDHAIEKAFQLWSNV [D4P]	1.99
YTPTLPRADVDHAIEKAFQLWSNV [D4T]	3.69
YTPILPRADVDHAIEKAFQLWSNV [D4I]	2.75
YTPALPRADVDHAIEKAFQLWSNV [D4A]	1.75
YTPSLPRADVDHAIEKAFQLWSNV [D4S]	2.35
YTPRLPRADVDHAIEKAFQLWSNV [D4R]	2.52
YTPQLPRADVDHAIEKAFQLWSNV [D4Q]	2.62
YTPLLPRADVDHAIEKAFQLWSNV [D4L]	3.1
YTPKLPRADVDHAIEKAFQLWSNV [D4K]	2.38
YTPELPRADVDHAIEKAFQLWSNV [D4E]	1.4
YTPWLPRADVDHAIEKAFQLWSNV [D4W]	1.94
YTPGLPRADVDHAIEKAFQLWSNV [D4G]	2.16
YTPFLPRADVDHAIEKAFQLWSNV [D4F]	2.54
YTPHLPRADVDHAIEKAFQLWSNV [D4H]	2.28
YTPNLPRADVDHAIEKAFQLWSNV [D4N]	2.56

Variant	protein stability index
YTPCLPRADVDHAIEKAFQLWSNV [D4C]	1.69
YTPMLPRADVDHAIEKAFQLWSNV [D4M]	2.23
YTPYLPRADVDHAIEKAFQLWSNV [D4Y]	3.17
YTPVLPRADVDHAIEKAFQLWSNV [D4V]	3.17
YIPDLPRADVDHAIEKAFQLWSNV [T2I]	2.52
YDPDLPRADVDHAIEKAFQLWSNV [T2D]	3.08
YLPDLPRADVDHAIEKAFQLWSNV [T2L]	1.83
YKPDLPRADVDHAIEKAFQLWSNV [T2K]	2.56
YFPDLPRADVDHAIEKAFQLWSNV [T2F]	2.17
YNPDLPRADVDHAIEKAFQLWSNV [T2N]	2.18
YRPDLPRADVDHAIEKAFQLWSNV [T2R]	2.31
YCPDLPRADVDHAIEKAFQLWSNV [T2C]	1.93
YWPDLPRADVDHAIEKAFQLWSNV [T2W]	2.16
YYPDLPRADVDHAIEKAFQLWSNV [T2Y]	2.45
YGPDLPRADVDHAIEKAFQLWSNV [T2G]	2.4
YMPDLPRADVDHAIEKAFQLWSNV [T2M]	2.35
YSPDLPRADVDHAIEKAFQLWSNV [T2S]	1.95
YVPDLPRADVDHAIEKAFQLWSNV [T2V]	1.95
YPPDLPRADVDHAIEKAFQLWSNV [T2P]	2.17
YQPDLPRADVDHAIEKAFQLWSNV [T2Q]	1.74
YHPDLPRADVDHAIEKAFQLWSNV [T2H]	2.11

Variant	protein stability index
YEPDLPRADVDHAIEKAFQLWSNV [T2E]	3.6
YAPDLPRADVDHAIEKAFQLWSNV [T2A]	2.4
YTNDLPRADVDHAIEKAFQLWSNV [P3N]	2.5
YTGDLPRADVDHAIEKAFQLWSNV [P3G]	1.62
YTCDLPRADVDHAIEKAFQLWSNV [P3C]	1.54
YTYDLPRADVDHAIEKAFQLWSNV [P3Y]	1.8
YTSDLPRADVDHAIEKAFQLWSNV [P3S]	2.36
YTQDLPRADVDHAIEKAFQLWSNV [P3Q]	2.96
YTTDLPRADVDHAIEKAFQLWSNV [P3T]	1.84
YTLDLPRADVDHAIEKAFQLWSNV [P3L]	1.62
YTVDLPRADVDHAIEKAFQLWSNV [P3V]	2.13
YTFDLPRADVDHAIEKAFQLWSNV [P3F]	2.3
YTDDLPRADVDHAIEKAFQLWSNV [P3D]	3.37
YTMDLPRADVDHAIEKAFQLWSNV [P3M]	1.88
YTKDLPRADVDHAIEKAFQLWSNV [P3K]	2.01
YTIDLPRADVDHAIEKAFQLWSNV [P3I]	1.92
YTEDLPRADVDHAIEKAFQLWSNV [P3E]	2.66
YTADLPRADVDHAIEKAFQLWSNV [P3A]	1.79
YTWDLPRADVDHAIEKAFQLWSNV [P3W]	2.87
YTRDLPRADVDHAIEKAFQLWSNV [P3R]	2.49
YTHDLPRADVDHAIEKAFQLWSNV [P3H]	1.79

Variant	protein stability index
LTPDLPRADVDHAIEKAFQLWSNV [Y1L]	2.87
GTPDLPRADVDHAIEKAFQLWSNV [Y1G]	2.97
TTPDLPRADVDHAIEKAFQLWSNV [Y1T]	2.92
CTPDLPRADVDHAIEKAFQLWSNV [Y1C]	2.33
FTPDLPRADVDHAIEKAFQLWSNV [Y1F]	2.48
STPDLPRADVDHAIEKAFQLWSNV [Y1S]	3.52
HTPDLPRADVDHAIEKAFQLWSNV [Y1H]	3.43
VTPDLPRADVDHAIEKAFQLWSNV [Y1V]	3.19
ITPDLPRADVDHAIEKAFQLWSNV [Y1I]	2.64
MTPDLPRADVDHAIEKAFQLWSNV [Y1M]	3.16
RTPDLPRADVDHAIEKAFQLWSNV [Y1R]	2.97
ETPDLPRADVDHAIEKAFQLWSNV [Y1E]	3.53
QTPDLPRADVDHAIEKAFQLWSNV [Y1Q]	3.08
ATPDLPRADVDHAIEKAFQLWSNV [Y1A]	4.18
PTPDLPRADVDHAIEKAFQLWSNV [Y1P]	3.47
DTPDLPRADVDHAIEKAFQLWSNV [Y1D]	3.57
WTPDLPRADVDHAIEKAFQLWSNV [Y1W]	2.32
KTPDLPRADVDHAIEKAFQLWSNV [Y1K]	3.32
NTPDLPRADVDHAIEKAFQLWSNV [Y1N]	3.18

Variants of: B2
Assay: as above
Conditions: c terminus: a fixed tail appended

Variant	protein stability index
YVHHQALLDVKNIAHQNKFGEDMR [P24R]	1.56
YVHHQALLDVKNIAHQNKFGEDMC [P24C]	1.98
YVHHQALLDVKNIAHQNKFGEDMF [P24F]	1.49
YVHHQALLDVKNIAHQNKFGEDMG [P24G]	2.36
YVHHQALLDVKNIAHQNKFGEDML [P24L]	2.23
YVHHQALLDVKNIAHQNKFGEDMI [P24I]	2.06
YVHHQALLDVKNIAHQNKFGEDMY [P24Y]	1.51
YVHHQALLDVKNIAHQNKFGEDMW [P24W]	2.05
YVHHQALLDVKNIAHQNKFGEDMD [P24D]	1.96
YVHHQALLDVKNIAHQNKFGEDMS [P24S]	2.25
YVHHQALLDVKNIAHQNKFGEDMV [P24V]	1.57
YVHHQALLDVKNIAHQNKFGEDMT [P24T]	2.17
YVHHQALLDVKNIAHQNKFGEDMK [P24K]	2.25
YVHHQALLDVKNIAHQNKFGEDME [P24E]	1.77
YVHHQALLDVKNIAHQNKFGEDMA [P24A]	1.46
YVHHQALLDVKNIAHQNKFGEDMH [P24H]	1.58
YVHHQALLDVKNIAHQNKFGEDMN [P24N]	2.19
YVHHQALLDVKNIAHQNKFGEDMQ [P24Q]	1.91
YVHHQALLDVKNIAHQNKFGEDMM [P24M]	1.96
YVHHQALLDVKNIAHQNKFGSDMP [E21S]	2.22
YVHHQALLDVKNIAHQNKFGLDMP [E21L]	1.72
YVHHQALLDVKNIAHQNKFGRDMP [E21R]	1.47

Variant	protein stability index
YVHHQALLDVKNIAHQNKFGTDMP [E21T]	2.01
YVHHQALLDVKNIAHQNKFGKDMP [E21K]	1.57
YVHHQALLDVKNIAHQNKFGYDMP [E21Y]	2.15
YVHHQALLDVKNIAHQNKFGMDMP [E21M]	1.71
YVHHQALLDVKNIAHQNKFGFDMP [E21F]	2.54
YVHHQALLDVKNIAHQNKFGVDMP [E21V]	1.61
YVHHQALLDVKNIAHQNKFGCDMP [E21C]	2.23
YVHHQALLDVKNIAHQNKFGQDMP [E21Q]	2.11
YVHHQALLDVKNIAHQNKFGDDMP [E21D]	1.97
YVHHQALLDVKNIAHQNKFGWDMP [E21W]	2.02
YVHHQALLDVKNIAHQNKFGADMP [E21A]	2.01
YVHHQALLDVKNIAHQNKFGIDMP [E21I]	1.57
YVHHQALLDVKNIAHQNKFGPDMP [E21P]	1.4
YVHHQALLDVKNIAHQNKFGHDMP [E21H]	1.46
YVHHQALLDVKNIAHQNKFGNDMP [E21N]	2
YVHHQALLDVKNIAHQNKFGGDMP [E21G]	2.14
YVHHQALLDVKNIAHQNKRGEDMP [F19R]	1.88
YVHHQALLDVKNIAHQNKLGEDMP [F19L]	2.09
YVHHQALLDVKNIAHQNKVGEDMP [F19V]	1.83
YVHHQALLDVKNIAHQNKPGEDMP [F19P]	2.83
YVHHQALLDVKNIAHQNKQGEDMP [F19Q]	2.35
YVHHQALLDVKNIAHQNKNGEDMP [F19N]	2.05

Variant	protein stability index
YVHHQALLDVKNIAHQNKSGEDMP [F19S]	2.39
YVHHQALLDVKNIAHQNKWGEDMP [F19W]	1.73
YVHHQALLDVKNIAHQNKMGEDMP [F19M]	2.34
YVHHQALLDVKNIAHQNKTGEDMP [F19T]	2.19
YVHHQALLDVKNIAHQNKYGEDMP [F19Y]	1.96
YVHHQALLDVKNIAHQNKFPEDMP [G20P]	1.96
YVHHQALLDVKNIAHQNKFHEDMP [G20H]	2.19
YVHHQALLDVKNIAHQNKFEEDMP [G20E]	2.26
YVHHQALLDVKNIAHQNKFDEDMP [G20D]	2.28
YVHHQALLDVKNIAHQNKFMEDMP [G20M]	2.35
YVHHQALLDVKNIAHQNKFAEDMP [G20A]	1.99
YVHHQALLDVKNIAHQNKFKEDMP [G20K]	2.14
YVHHQALLDVKNIAHQNKFCEDMP [G20C]	1.83
YVHHQALLDVKNIAHQNKFWEDMP [G20W]	2.41
YVHHQALLDVKNIAHQNKFVEDMP [G20V]	2.13
YVHHQALLDVKNIAHQNKFNEDMP [G20N]	1.96
YVHHQALLDVKNIAHQNKFREDMP [G20R]	1.56
YVHHQALLDVKNIAHQNKFLEDMP [G20L]	2.19
YVHHQALLDVKNIAHQNKFYEDMP [G20Y]	2.58
YVHHQALLDVKNIAHQNKFTEDMP [G20T]	1.91
YVHHQALLDVKNIAHQNKFSEDMP [G20S]	1.82
YVHHQALLDVKNIAHQNKFFEDMP [G20F]	3.09

Variant	protein stability index
YVHHQALLDVKNIAHQNKFQEDMP [G20Q]	2.03
YVHHQALLDVKNIAHQNKFIEDMP [G20I]	1.88
YVHHQALLDVKNIAHQNKFGEDKP [M23K]	2.26
YVHHQALLDVKNIAHQNKFGEDCP [M23C]	1.95
YVHHQALLDVKNIAHQNKFGEDVP [M23V]	1.74
YVHHQALLDVKNIAHQNKFGEDSP [M23S]	2.13
YVHHQALLDVKNIAHQNKFGEDRP [M23R]	1.97
YVHHQALLDVKNIAHQNKFGEDFP [M23F]	2.23
YVHHQALLDVKNIAHQNKFGEDNP [M23N]	1.88
YVHHQALLDVKNIAHQNKFGEDAP [M23A]	1.94
YVHHQALLDVKNIAHQNKFGEDDP [M23D]	2.17
YVHHQALLDVKNIAHQNKFGEDEP [M23E]	2.06
YVHHQALLDVKNIAHQNKFGEDGP [M23G]	2.03
YVHHQALLDVKNIAHQNKFGEDLP [M23L]	1.97
YVHHQALLDVKNIAHQNKFGEDQP [M23Q]	1.68
YVHHQALLDVKNIAHQNKFGEDHP [M23H]	1.93
YVHHQALLDVKNIAHQNKFGEDTP [M23T]	2.63
YVHHQALLDVKNIAHQNKFGEDIP [M23I]	2.39
YVHHQALLDVKNIAHQNKFGEDWP [M23W]	1.49
YVHHQALLDVKNIAHQNKFGEDYP [M23Y]	2.14
YVHHQALLDVKNIAHQNKFGEDPP [M23P]	2.18
YVHHQALLDVKNIAHQNKFGEWMP [D22W]	2.14

Variant	protein stability index
YVHHQALLDVKNIAHQNKFGEFMP [D22F]	1.57
YVHHQALLDVKNIAHQNKFGELMP [D22L]	2.17
YVHHQALLDVKNIAHQNKFGEYMP [D22Y]	1.74
YVHHQALLDVKNIAHQNKFGERMP [D22R]	1.73
YVHHQALLDVKNIAHQNKFGEQMP [D22Q]	1.76
YVHHQALLDVKNIAHQNKFGEMMP [D22M]	1.68
YVHHQALLDVKNIAHQNKFGECMP [D22C]	2.63
YVHHQALLDVKNIAHQNKFGESMP [D22S]	2.48
YVHHQALLDVKNIAHQNKFGEPMP [D22P]	2.21
YVHHQALLDVKNIAHQNKFGEIMP [D22I]	2.21
YVHHQALLDVKNIAHQNKFGEKMP [D22K]	2.09
YVHHQALLDVKNIAHQNKFGEHMP [D22H]	2.4
YVHHQALLDVKNIAHQNKFGEGMP [D22G]	1.64
YVHHQALLDVKNIAHQNKFGEAMP [D22A]	1.67
YVHHQALLDVKNIAHQNKFGEEMP [D22E]	1.69
YVHHQALLDVKNIAHQNKFGEVMP [D22V]	1.5
YVHHQALLDVKNIAHQNKFGENMP [D22N]	2.31
YVHHQALLDVKNIAHQNKFGETMP [D22T]	1.86
